# In patent publication US20210403591A1 (OSSIANIX, published 2021):
# Tests used:
# [1] = biological target: T1, purified mTfR1 mutant M3 (NGA) (mouse, UniProt Q62351 89-763); test: ELISA, coated purified mTfR-1
# T1 construct: also called S255A
# [2] = biological target: T2, mTfR-1 V194A on Expi293 cells (mouse, UniProt Q62351 1-763); test: FACS, transfected Expi293 cells
# T2 construct: whole, on cells
# Description: (§1) Transfected Expi293 cells were harvested and 2×10⁵ cells were transferred into V-bottom 96-well plate for staining. The cells were blocked in PBS containing 1% BSA (FACS buffer) for 10 min on ice, centrifuged to remove the buffer and 1 μl of 8D3-hFc formatted antibody, Clone C-hFc or Clone C variants 18 and 13 (Table 1), all at 1 mg/ml, was added to the wells. The cells were co-stained with mouse Tf-Alexa647 (Jackson ImmunoResearch). After 30 minutes on ice, the cells were washed and incubated with anti-hFc-PE (eBioscience) for 20 minutes on ice, washed again and resuspended in […] of FACS buffer containing 5 μl of propidium iodide (PI) to exclude dead cells from the analysis. The percentage of double-positive cells that stained with mTf and the tested antibody was determined on a CytoFlex cytometer (Beckman Coulter). The percentage of cells in the double positive quadrant (Q2) for WT mTfR-1 was used for normalization.
# [3] = biological target: T3, mTfR-1 K195A on Expi293 cells (mouse, UniProt Q62351 1-763); test: FACS, transfected Expi293 cells
# T3 construct: whole, on cells
# Description: as §1
# [4] = biological target: T4, mTfR-1 G199A on Expi293 cells (mouse, UniProt Q62351 1-763); test: FACS, transfected Expi293 cells
# T4 construct: whole, on cells
# Description: as §1
# [5] = biological target: T5, mTfR-1 Q200A on Expi293 cells (mouse, UniProt Q62351 1-763); test: FACS, transfected Expi293 cells
# T5 construct: whole, on cells
# Description: as §1
# [6] = biological target: T6, mTfR-1 M202A on Expi293 cells (mouse, UniProt Q62351 1-763); test: FACS, transfected Expi293 cells
# T6 construct: whole, on cells
# Description: as §1
# [7] = biological target: T7, mTfR-1 E229A on Expi293 cells (mouse, UniProt Q62351 1-763); test: FACS, transfected Expi293 cells
# T7 construct: whole, on cells
# Description: as §1
# [8] = biological target: T8, mTfR-1 V230A on Expi293 cells (mouse, UniProt Q62351 1-763); test: FACS, transfected Expi293 cells
# T8 construct: whole, on cells
# Description: as §1
# [9] = biological target: T9, mTfR-1 Q274A on Expi293 cells (mouse, UniProt Q62351 1-763); test: FACS, transfected Expi293 cells
# T9 construct: whole, on cells
# Description: as §1
# [10] = biological target: T10, mTfR-1 S275A on Expi293 cells (mouse, UniProt Q62351 1-763); test: FACS, transfected Expi293 cells
# T10 construct: whole, on cells
# Description: as §1
# [11] = biological target: T11, mTfR-1 N277A on Expi293 cells (mouse, UniProt Q62351 1-763); test: FACS, transfected Expi293 cells
# T11 construct: whole, on cells
# Description: as §1
# [12] = biological target: T12, mTfR-1 P324A on Expi293 cells (mouse, UniProt Q62351 1-763); test: FACS, transfected Expi293 cells
# T12 construct: whole, on cells
# Description: as §1
# [13] = biological target: T13, mTfR-1 S326A on Expi293 cells (mouse, UniProt Q62351 1-763); test: FACS, transfected Expi293 cells
# T13 construct: whole, on cells
# Description: as §1
# [14] = biological target: T14, mTfR-1 Q327A on Expi293 cells (mouse, UniProt Q62351 1-763); test: FACS, transfected Expi293 cells
# T14 construct: whole, on cells
# Description: as §1
# [15] = biological target: T15, mTfR-1 P332A on Expi293 cells (mouse, UniProt Q62351 1-763); test: FACS, transfected Expi293 cells
# T15 construct: whole, on cells
# Description: as §1
# [16] = biological target: T16, mTfR-1 P335A on Expi293 cells (mouse, UniProt Q62351 1-763); test: FACS, transfected Expi293 cells
# T16 construct: whole, on cells
# Description: as §1
# [17] = biological target: T17, mTfR-1 I378A on Expi293 cells (mouse, UniProt Q62351 1-763); test: FACS, transfected Expi293 cells
# T17 construct: whole, on cells
# Description: as §1
# [18] = biological target: T18, mTfR-1 L383A on Expi293 cells (mouse, UniProt Q62351 1-763); test: FACS, transfected Expi293 cells
# T18 construct: whole, on cells
# Description: as §1
# [19] = biological target: T19, mTfR-1 K384A on Expi293 cells (mouse, UniProt Q62351 1-763); test: FACS, transfected Expi293 cells
# T19 construct: whole, on cells
# Description: as §1
# [20] = biological target: T20, mTfR-1 I192A on Expi293 cells (mouse, UniProt Q62351 1-763); test: FACS, transfected Expi293 cells; mutant poorly expressed
# T20 construct: whole, on cells; also called 1192A
# Description: as §1
# [21] = biological target: T21, mTfR-1 N201A on Expi293 cells (mouse, UniProt Q62351 1-763); test: as above
# T21 construct: whole, on cells
# Description: as §1
# [22] = biological target: T22, mTfR-1 F224A on Expi293 cells (mouse, UniProt Q62351 1-763); test: as above
# T22 construct: whole, on cells
# Description: as §1
# [23] = biological target: T23, mTfR-1 L256A on Expi293 cells (mouse, UniProt Q62351 1-763); test: as above
# T23 construct: whole, on cells
# Description: as §1
# [24] = biological target: T24, mTfR-1 A278T on Expi293 cells (mouse, UniProt Q62351 1-763); test: as above
# T24 construct: whole, on cells
# Description: as §1
# [25] = biological target: T25, mTfR-1 L331A on Expi293 cells (mouse, UniProt Q62351 1-763); test: as above
# T25 construct: whole, on cells
# Description: as §1
# [26] = biological target: T26, mTfR-1 I334A on Expi293 cells (mouse, UniProt Q62351 1-763); test: as above
# T26 construct: whole, on cells
# Description: as §1
# [27] = biological target: T27, mTfR-1 V379A on Expi293 cells (mouse, UniProt Q62351 1-763); test: as above
# T27 construct: whole, on cells
# Description: as §1
# [28] = biological target: T28, mTfR-1 N381A on Expi293 cells (mouse, UniProt Q62351 1-763); test: as above
# T28 construct: whole, on cells
# Description: as §1
# T22 sequence (Q62351 whole entry F224A): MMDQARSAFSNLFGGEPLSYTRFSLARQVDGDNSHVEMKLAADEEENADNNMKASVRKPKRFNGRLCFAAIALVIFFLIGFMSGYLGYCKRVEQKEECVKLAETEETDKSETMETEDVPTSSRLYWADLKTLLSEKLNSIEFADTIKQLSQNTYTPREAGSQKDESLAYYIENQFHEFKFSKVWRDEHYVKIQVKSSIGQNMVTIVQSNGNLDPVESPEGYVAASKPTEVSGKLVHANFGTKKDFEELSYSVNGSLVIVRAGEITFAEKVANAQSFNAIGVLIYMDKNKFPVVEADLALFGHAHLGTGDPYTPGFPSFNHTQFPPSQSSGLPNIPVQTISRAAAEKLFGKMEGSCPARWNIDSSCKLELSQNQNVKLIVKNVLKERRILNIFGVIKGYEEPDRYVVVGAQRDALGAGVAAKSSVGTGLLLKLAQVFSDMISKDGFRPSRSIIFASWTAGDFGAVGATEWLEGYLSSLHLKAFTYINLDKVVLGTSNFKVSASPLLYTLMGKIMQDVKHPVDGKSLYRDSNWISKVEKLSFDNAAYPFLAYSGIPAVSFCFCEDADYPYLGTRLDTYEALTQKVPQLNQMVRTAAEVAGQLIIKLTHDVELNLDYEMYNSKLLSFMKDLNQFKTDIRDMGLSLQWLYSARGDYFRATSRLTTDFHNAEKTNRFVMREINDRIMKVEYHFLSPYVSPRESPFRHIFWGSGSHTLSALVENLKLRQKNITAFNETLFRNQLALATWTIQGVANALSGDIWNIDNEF
# T6 sequence (Q62351 whole entry M202A): as the sequence (Q62351 whole entry F224A) above, with M202A, A224F counted along it
# T15 sequence (Q62351 whole entry P332A): as the sequence (Q62351 whole entry F224A) above, with A224F, P332A counted along it
# T17 sequence (Q62351 whole entry I378A): as the sequence (Q62351 whole entry F224A) above, with A224F, I378A counted along it
# T26 sequence (Q62351 whole entry I334A): as the sequence (Q62351 whole entry F224A) above, with A224F, I334A counted along it
# T27 sequence (Q62351 whole entry V379A): as the sequence (Q62351 whole entry F224A) above, with A224F, V379A counted along it
# T20 sequence (Q62351 whole entry I192A): as the sequence (Q62351 whole entry F224A) above, with I192A, A224F counted along it
# T1 sequence (Q62351 other isoform, or with tags, fused parts or gaps mutant): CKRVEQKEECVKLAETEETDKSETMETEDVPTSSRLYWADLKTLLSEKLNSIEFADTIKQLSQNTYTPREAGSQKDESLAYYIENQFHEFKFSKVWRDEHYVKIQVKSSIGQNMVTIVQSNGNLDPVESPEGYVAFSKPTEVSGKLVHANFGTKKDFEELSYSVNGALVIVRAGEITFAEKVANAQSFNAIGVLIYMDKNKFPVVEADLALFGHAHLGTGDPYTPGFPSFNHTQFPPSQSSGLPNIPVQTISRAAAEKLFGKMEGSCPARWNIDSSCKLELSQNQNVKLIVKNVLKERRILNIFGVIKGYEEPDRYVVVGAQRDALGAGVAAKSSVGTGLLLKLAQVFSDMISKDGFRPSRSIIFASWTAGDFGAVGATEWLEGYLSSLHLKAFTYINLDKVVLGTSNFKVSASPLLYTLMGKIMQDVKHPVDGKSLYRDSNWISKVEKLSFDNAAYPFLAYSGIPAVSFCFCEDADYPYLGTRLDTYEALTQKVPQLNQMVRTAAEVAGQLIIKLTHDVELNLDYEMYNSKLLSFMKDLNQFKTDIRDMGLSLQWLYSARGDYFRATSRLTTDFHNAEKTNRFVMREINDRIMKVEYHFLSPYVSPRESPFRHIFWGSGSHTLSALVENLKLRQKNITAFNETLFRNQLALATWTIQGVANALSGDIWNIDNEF
# T28 sequence (Q62351 whole entry N381A): as the sequence (Q62351 whole entry F224A) above, with A224F, N381A counted along it
# T23 sequence (Q62351 whole entry L256A): as the sequence (Q62351 whole entry F224A) above, with A224F, L256A counted along it
# T3 sequence (Q62351 whole entry K195A): as the sequence (Q62351 whole entry F224A) above, with K195A, A224F counted along it
# T7 sequence (Q62351 whole entry E229A): as the sequence (Q62351 whole entry F224A) above, with A224F, E229A counted along it
# T12 sequence (Q62351 whole entry P324A): as the sequence (Q62351 whole entry F224A) above, with A224F, P324A counted along it
# T4 sequence (Q62351 whole entry G199A): as the sequence (Q62351 whole entry F224A) above, with G199A, A224F counted along it
# T18 sequence (Q62351 whole entry L383A): as the sequence (Q62351 whole entry F224A) above, with A224F, L383A counted along it
# T13 sequence (Q62351 whole entry S326A): as the sequence (Q62351 whole entry F224A) above, with A224F, S326A counted along it
# T11 sequence (Q62351 whole entry N277A): as the sequence (Q62351 whole entry F224A) above, with A224F, N277A counted along it
# T10 sequence (Q62351 whole entry S275A): as the sequence (Q62351 whole entry F224A) above, with A224F, S275A counted along it
# T9 sequence (Q62351 whole entry Q274A): as the sequence (Q62351 whole entry F224A) above, with A224F, Q274A counted along it
# T16 sequence (Q62351 whole entry P335A): as the sequence (Q62351 whole entry F224A) above, with A224F, P335A counted along it
# T2 sequence (Q62351 whole entry V194A): as the sequence (Q62351 whole entry F224A) above, with V194A, A224F counted along it
# T21 sequence (Q62351 whole entry N201A): as the sequence (Q62351 whole entry F224A) above, with N201A, A224F counted along it
# T14 sequence (Q62351 whole entry Q327A): as the sequence (Q62351 whole entry F224A) above, with A224F, Q327A counted along it
# T8 sequence (Q62351 whole entry V230A): as the sequence (Q62351 whole entry F224A) above, with A224F, V230A counted along it
# T19 sequence (Q62351 whole entry K384A): as the sequence (Q62351 whole entry F224A) above, with A224F, K384A counted along it
# T24 sequence (Q62351 whole entry A278T): as the sequence (Q62351 whole entry F224A) above, with A224F, A278T counted along it
# T5 sequence (Q62351 whole entry Q200A): as the sequence (Q62351 whole entry F224A) above, with Q200A, A224F counted along it
# T25 sequence (Q62351 whole entry L331A): as the sequence (Q62351 whole entry F224A) above, with A224F, L331A counted along it
binder,measurement,setting,value
"Clone C variant 18 VNAR-hFc (Fc fusion, not shown: a dimerising Fc or GST, also called Clone C v18; Clone C var; 18) ARVDQTPQTITKETGESLTINCVLRDSNCALSSTYWYRKKSGSTNEENISKGGRYVETVNSGSKSFSLRINDLTVEDSGTYRCNVVQYPQYPNYFWCDVYGDGTAVTVN",EC50,[1],2.6 nM
same,% double-positive cells vs WT,[2],199%
same,% double-positive cells vs WT,[3],150%
same,% double-positive cells vs WT,[4],42%
same,% double-positive cells vs WT,[5],171%
same,% double-positive cells vs WT,[6],153%
same,% double-positive cells vs WT,[7],51%
same,% double-positive cells vs WT,[8],59%
same,% double-positive cells vs WT,[9],229%
same,% double-positive cells vs WT,[10],136%
same,% double-positive cells vs WT,[11],155%
same,% double-positive cells vs WT,[12],39%
same,% double-positive cells vs WT,[13],129%
same,% double-positive cells vs WT,[14],119%
same,% double-positive cells vs WT,[15],218%
same,% double-positive cells vs WT,[16],138%
same,% double-positive cells vs WT,[17],80%
same,% double-positive cells vs WT,[18],354%
same,% double-positive cells vs WT,[19],147%
same,% double-positive cells vs WT,[20],18%
same,% double-positive cells vs WT,[21],0%
same,% double-positive cells vs WT,[22],0%
same,% double-positive cells vs WT,[23],0%
same,% double-positive cells vs WT,[24],21%
same,% double-positive cells vs WT,[25],0%
same,% double-positive cells vs WT,[26],0%
same,% double-positive cells vs WT,[27],0%
same,% double-positive cells vs WT,[28],0%
